Measured values from the supplement of paper PMC9233669.
Variants at the floor of the assay were thinned out.

Columns and labels:
biotinyl-Ile-oxazolone = experiment: self-aminoacylation, catalytic enhancement (BIO) (fold over background); higher = more active; k-Seq, kA / k0A0; sequences stand for … in GGGAAUGGAUCCACAUCUACGAAUUC…UUCACUGCAGACUUGACGAAGCUG
How it was run: (§1)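 Working in 50 μL HEPES/NaCl/KCl/MgCl2/CaCl2 buffer with 5% acetonitrile at pH 6.9–7.0, mutagenized RNA pools (0.43 μM; 21-nt variable region) were reacted with 2–1250 μM of each biotinyl-aminoacyl-oxazolone for 90 minutes at room temperature. Streptavidin capture followed, with quantification by triplicate qPCR and Illumina sequencing. Catalytic enhancement is reported as median kA over the uncatalyzed rate, the low-activity peak of a bimodal Gaussian fit to the data.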

biotinyl-Leu-oxazolone = experiment: self-aminoacylation, catalytic enhancement (BLO) (fold over background); higher = more active; k-Seq, kA / k0A0; sequences stand for … in GGGAAUGGAUCCACAUCUACGAAUUC…UUCACUGCAGACUUGACGAAGCUG
How it was run: as §1

biotinyl-Met-oxazolone = experiment: self-aminoacylation, catalytic enhancement (BMO) (fold over background); higher = more active; k-Seq, kA / k0A0; sequences stand for … in GGGAAUGGAUCCACAUCUACGAAUUC…UUCACUGCAGACUUGACGAAGCUG
How it was run: as §1

biotinyl-Trp-oxazolone = experiment: self-aminoacylation, catalytic enhancement (BWO) (fold over background); higher = more active; k-Seq, kA / k0A0; sequences stand for … in GGGAAUGGAUCCACAUCUACGAAUUC…UUCACUGCAGACUUGACGAAGCUG
How it was run: as §1

biotinyl-Phe-oxazolone = experiment: self-aminoacylation, catalytic enhancement (BFO) (fold over background); higher = more active; k-Seq, kA / k0A0; sequences stand for … in GGGAAUGGAUCCACAUCUACGAAUUC…UUCACUGCAGACUUGACGAAGCUG
How it was run: as §1

biotinyl-Val-oxazolone = experiment: self-aminoacylation, catalytic enhancement (BVO) (fold over background); higher = more active; k-Seq, kA / k0A0; sequences stand for … in GGGAAUGGAUCCACAUCUACGAAUUC…UUCACUGCAGACUUGACGAAGCUG
How it was run: as §1

| Sequence | self-aminoacylation (biotinyl-Ile-oxazolone) | self-aminoacylation (biotinyl-Leu-oxazolone) | self-aminoacylation (biotinyl-Met-oxazolone) | self-aminoacylation (biotinyl-Trp-oxazolone) | self-aminoacylation (biotinyl-Phe-oxazolone) | self-aminoacylation (biotinyl-Val-oxazolone) |
| --- | --- | --- | --- | --- | --- | --- |
| AAGUUUGCGACUAGUCGCAAG [Fam3.1 aminoacylation ribozyme variant] | 1.78 | 1.34 | 1.73 | 1.67 | 2.33 | 1.34 |
| AAGUUUGCGUAUAGUCGCAAG [Fam3.1 aminoacylation ribozyme variant] | 0.888 | 0.753 | 1.21 | 1.23 | 1.22 | 0.996 |
| AAGUUUGCUAAAAAUCGCAAG [Fam3.1 aminoacylation ribozyme variant] | 1.09 | 0.891 | 0.925 | 0.986 | 0.949 | 0.721 |
| AAGUUUGCUAAAAGCCGCAAG [Fam3.1 aminoacylation ribozyme variant] | 0.613 | 0.63 | 0.604 | 1.08 | 1.42 | 0.689 |
| AAGUUUGCUAAAAGUCACAAG [Fam3.1 aminoacylation ribozyme variant] | 1.35 | 0.919 | 0.971 | 2 | 3.25 | 1.07 |
| AAGUUUGCUAAAAGUCGCAAU [Fam3.1 aminoacylation ribozyme variant] | 1.24 | 0.929 | 1.37 | 1.69 | 1.15 | 1.17 |
| AAGUUUGCUAAAAGUCGCGAG [Fam3.1 aminoacylation ribozyme variant] | 1.7 | 2.1 | 2.21 | 2.34 | 2.4 | 1.68 |
| AAGUUUGCUAAAAGUUGCAAG [Fam3.1 aminoacylation ribozyme variant] | 0.983 | 0.968 | 1.07 | 0.711 | 1.18 | 0.781 |
| AAGUUUGCUAACAGUCGCAAU [Fam3.1 aminoacylation ribozyme variant] | 1.13 | 0.968 | 1.22 | 1.58 | 0.994 | 0.959 |
| AAGUUUGCUAACAGUCGCACG [Fam3.1 aminoacylation ribozyme variant] | 0.921 | 0.745 | 1.19 | 0.973 | 1.65 | 1.18 |
| AAGUUUGCUAACAGUCUCAAG [Fam3.1 aminoacylation ribozyme variant] | 0.979 | 0.733 | 0.713 | 1.64 | 4.44 | 0.694 |
| AAGUUUGCUAAGAAUCGCAAG [Fam3.1 aminoacylation ribozyme variant] | 0.583 | 0.521 | 0.503 | 0.588 | 0.824 | 0.58 |
| AAGUUUGCUAAUAAUCGCAAA [Fam3.1 aminoacylation ribozyme variant] | 1.2 | 1.09 | 1.14 | 1.02 | 0.86 | 1.14 |
| AAGUUUGCUAAUAAUUGCAAG [Fam3.1 aminoacylation ribozyme variant] | 0.961 | 0.877 | 0.862 | 0.832 | 1.1 | 0.857 |
| AAGUUUGCUAAUACUCGCAAA [Fam3.1 aminoacylation ribozyme variant] | 1.2 | 0.837 | 1.22 | 1.71 | 1.26 | 1.05 |
| AAGUUUGCUAAUACUCUCAAG [Fam3.1 aminoacylation ribozyme variant] | 0.693 | 0.63 | 0.512 | 0.527 | 0.931 | 0.721 |
| AAGUUUGCUAAUAGACACAAG [Fam3.1 aminoacylation ribozyme variant] | 0.828 | 0.654 | 0.665 | 0.797 | 1.23 | 0.916 |
| AAGUUUGCUAAUAGAGGCAAG [Fam3.1 aminoacylation ribozyme variant] | 0.762 | 0.554 | 0.692 | 0.788 | 0.955 | 0.733 |
| AAGUUUGCUAAUAGCCGCAUG [Fam3.1 aminoacylation ribozyme variant] | 1.07 | 1.19 | 1.12 | 1.54 | 2 | 1.1 |
| AAGUUUGCUAAUAGCGGCAAG [Fam3.1 aminoacylation ribozyme variant] | 0.668 | 0.575 | 0.508 | 0.924 | 0.964 | 0.646 |
| AAGUUUGCUAAUAGGCGCGAG [Fam3.1 aminoacylation ribozyme variant] | 1.16 | 0.954 | 0.819 | 1.42 | 1.2 | 0.9 |
| AAGUUUGCUAAUAGGCUCAAG [Fam3.1 aminoacylation ribozyme variant] | 0.664 | 0.715 | 0.493 | 0.535 | 0.973 | 0.774 |
| AAGUUUGCUAAUAGUAGCAAG [Fam3.1 aminoacylation ribozyme variant] | 1.04 | 0.95 | 1.02 | 0.96 | 1.22 | 0.993 |
| AAGUUUGCUAAUAGUAGCUAG [Fam3.1 aminoacylation ribozyme variant] | 0.958 | 0.639 | 1.28 | 1.14 | 1.05 | 0.988 |
| AAGUUUGCUAAUAGUAUCAAG [Fam3.1 aminoacylation ribozyme variant] | 1 | 0.714 | 1.22 | 0.998 | 1.64 | 0.928 |
